Measured values as given in patent US20070292907.

Test system: bovine 19S complex (PA700)

USP14-ΔUBL (91-494) (purified recombinant, activation assay)
activity toward UbVS (anti-ubiquitin immunoblot): showed extremely low activity toward UbYS, both in the absence and presence of the 19S regulatory particle
